Our source for the Kd, ΔIstd and ΔRmax values is patent US9625458B2, “Biosensor” (priority 2002, dated 2017).

As usually defined, the Kd is a measure of binding affinity in units of concentration.

The nature of experiment [1]: Fe(III) affinity of Fe(III) BP from competition with Fe(III) chelates / Fe(III) citrate. The format is binding. Conditions: E57D mutation; assuming logK=10.25 for 1:1 Fe(III) citrate complex; unit inferred. The source says:
Family of biosensors. A set of eleven bPBPs with widely varying ligand-binding specificities was selected for engineering biosensor function (Table 2). All were from E. coli except Fe(III) BP, which is from Haemophilus influenzae. Binding specificities and affinities of these proteins for their respective ligands have been characterized (references in Table 2). […] Most of these bPBPs bind at most two or three related ligands with high affinity (micromolar or better). […] Measured ligand dissociation constants in these proteins are typically in the range of 0.1 to 1 μM.
Cysteine point mutations were introduced by the PCR overlap method (Ho et al., Gene 77:51-59, 1989). Mutant proteins typically expressed as well as the wild type protein. […] In the case of Fe(III) BP, all mutations were constructed in the E57D background. […] This permitted straightforward determination of Fe(III) affinity by direct titration with Fe(III) citrate at nanomolar concentrations of Fe(III) BP.

The nature of experiment [2]: Fluorimetric titration of Fe(III) BP (E57D) conjugates with Fe(III) citrate. Format: binding. As to conditions: E57D background, read-out: Kd of Fe(III) BP conjugate. On the procedure: (§1) Fluorimetry. All measurements were conducted with an SLM Aminco-Bowman series 2 fluorimeter, with sample stirring at 25° C. Fluorescence emission spectra were acquired with excitation and emission slit widths of 4 and 8 nm, respectively. Photomultiplier tube potential was maintained between 400 and 800 volts. Protein concentrations were in the range of 50 to 1000 nM. Fluorophore-specific excitation was at the following approximate wavelengths: tryptophan, 290 nm; acrylodan, 390 nm; fluorescein, 485 nm; pyrene, 340 nm; NBD and NBDE, 490 nm; JPW4039, 485 nm; JPW4042, 470 nm; JPW4045, 470 nm.
Corrections were made for dilution of the protein and for background signal from buffer. Binding curves were fit to binding isotherms using equation 3 or 4, as appropriate.
Analyte affinity measurements. […] The emission wavelength monitored was that of maximum difference in intensity between the ligand-free and bound states. For each conjugate, fluorescence intensiometric observations were fit to a hyperbolic binding isotherm for a two-state model (Marvin et al., Proc. Natl. Acad. Sci. USA 94:4366-4371, 1997): […]

Experiment [3] in a line: Fluorescence emission spectra without and with saturating ligand (wavelength shift, ΔIstd, ΔRmax). Conditions: unbound vs ligand-saturated; for ΔIstd: standard intensity change; for ΔRmax: standard ratiometric change. How it is done: as §1
Assessment of fluorescent biosensor function. Fluorescence emission spectra of bPBP-fluorophore conjugates were recorded in the absence and presence of saturating ligand concentrations. Spectral changes were characterized by four parameters: wavelength shift (the difference between the wavelengths of emission maximum in the unbound and ligand-saturated states), direction of intensity change (increase or decrease in intensity at the wavelengths of maximum emission in the two states), standard intensity change (ΔIstd), and standard ratiometric change (ΔR). ΔIstd is defined as the normalized intensity change relative to the average intensity, determined at the wavelength mid-point between the two emission maxima:
[formula] where λstd=(λmax, unbound+λmax, saturated)/2 and I1, I2 are the fluorescence intensities at λstd of each spectrum respectively (FIG. 4A). ΔR is defined in terms of two emission bands, A1 ([λ1, λ2]) and A2 ([λ3, λ4]) (FIG. 4B):
[formula] where ^∘A1, […] the areas in the absence of ligand, and ^∞A1, ^∞A2 the areas in the presence of saturating ligand. A computer program was used to enumerate ΔR for all possible pairs of wavelength bands in the two spectra, to identify the optimal sensing condition, defined as the maximum value of ΔR. Adjustable parameters of the algorithm, and their values used for ΔRmax quantities reported here, are: step size (2 nm), step width (10 nm), minimum integration area limit (fraction of total: 0.1), and maximum integration area limit (fraction of total: 1).

B1: Fe(III) BP E57D: Fe(III) BP with Glu57 substituted by Asp to weaken Fe(III) affinity (protein, UniProt P35755 24-332, looked up, variant E57D)
Iron-utilization periplasmic …: DITVYNGQHKEAATAVAKAFEQETGIKVTLNSGKSEQLAGQLKEEGDKTPADVFYTDQTATFADLSEAGLLAPISEQTIQQTAQKGVPLAPKKDWIALSGRSRVVVYDHTKLSEKDMEKSVLDYATPKWKGKIGYVSTSGAFLEQVVALSKMKGDKVALNWLKGLKENGKLYAKNSVALQAVENGEVPAALINNYYWYNLAKEKGVENLKSRLYFVRHQDPGALVSYSGAAVLKASKNQAEAQKFVDFLASKKGQEALVAARAEYPLRADVVSPFNLEPYEKLEAPVVSATTAQDKEHAIKLIEEAGLK
Regarding B1, the Kd in experiment [1] is ~0.03 µM.

B2: Fe(III) BP E203C-acrylodan (conjugate, UniProt P35755 24-332, looked up, variant E203C)
Iron-utilization periplasmic …: DITVYNGQHKEAATAVAKAFEQETGIKVTLNSGKSEQLAGQLKEEGDKTPADVFYTEQTATFADLSEAGLLAPISEQTIQQTAQKGVPLAPKKDWIALSGRSRVVVYDHTKLSEKDMEKSVLDYATPKWKGKIGYVSTSGAFLEQVVALSKMKGDKVALNWLKGLKENGKLYAKNSVALQAVENGEVPAALINNYYWYNLAKCKGVENLKSRLYFVRHQDPGALVSYSGAAVLKASKNQAEAQKFVDFLASKKGQEALVAARAEYPLRADVVSPFNLEPYEKLEAPVVSATTAQDKEHAIKLIEEAGLK
modifications: acrylodan label
Regarding B2, the dissociation constant Kd in experiment [2] is ~138 µM.

B3: ribose BP L265C JPW4042 (conjugate, UniProt P02925 26-296, looked up, variant L265C)
Ribose import binding protein …: KDTIALVVSTLNNPFFVSLKDGAQKEADKLGYNLVVLDSQNNPAKELANVQDLTVRGTKILLINPTDSDAVGNAVKMANQANIPVITLDRQATKGEVVSHIASDNVLGGKIAGDYIAKKAGEGAKVIELQGIAGTSAARERGEGFQQAVAAHKFNVLASQPADFDRIKGLNVMQNLLTAHPDVQAVFAQNDEMALGALRALQTAGKSDVMVVGFDGTPDGEKAVNDGKLAATIAQLPDQIGAKGVETADKVLKGEKVQAKYPVDCKLVVKQ
modifications: JPW4042 label
Regarding B3, in experiment [3], the ΔIstd is listed as 0.91 and the ΔRmax is listed as 2.13.

B4: ribose BP L265C JPW4045 (conjugate, UniProt P02925 26-296, looked up, variant L265C)
Ribose import binding protein …: KDTIALVVSTLNNPFFVSLKDGAQKEADKLGYNLVVLDSQNNPAKELANVQDLTVRGTKILLINPTDSDAVGNAVKMANQANIPVITLDRQATKGEVVSHIASDNVLGGKIAGDYIAKKAGEGAKVIELQGIAGTSAARERGEGFQQAVAAHKFNVLASQPADFDRIKGLNVMQNLLTAHPDVQAVFAQNDEMALGALRALQTAGKSDVMVVGFDGTPDGEKAVNDGKLAATIAQLPDQIGAKGVETADKVLKGEKVQAKYPVDCKLVVKQ
modifications: JPW4045 label
For the molecule B4, in experiment [3], the ΔIstd stood at 0.02 and the ΔRmax came to 0.12.

B5: ribose BP T135C NBD (conjugate, UniProt P02925 26-296, looked up, variant T135C)
Ribose import binding protein …: KDTIALVVSTLNNPFFVSLKDGAQKEADKLGYNLVVLDSQNNPAKELANVQDLTVRGTKILLINPTDSDAVGNAVKMANQANIPVITLDRQATKGEVVSHIASDNVLGGKIAGDYIAKKAGEGAKVIELQGIAGCSAARERGEGFQQAVAAHKFNVLASQPADFDRIKGLNVMQNLLTAHPDVQAVFAQNDEMALGALRALQTAGKSDVMVVGFDGTPDGEKAVNDGKLAATIAQLPDQIGAKGVETADKVLKGEKVQAKYPVDLKLVVKQ
modifications: NBD dye conjugate
With B5, in experiment [3], the ΔIstd is on record as 0.08 and the ΔRmax is 0.22.

B6: ribose BP L265C Acrylodan (conjugate, UniProt P02925 26-296, looked up, variant L265C)
Ribose import binding protein …: KDTIALVVSTLNNPFFVSLKDGAQKEADKLGYNLVVLDSQNNPAKELANVQDLTVRGTKILLINPTDSDAVGNAVKMANQANIPVITLDRQATKGEVVSHIASDNVLGGKIAGDYIAKKAGEGAKVIELQGIAGTSAARERGEGFQQAVAAHKFNVLASQPADFDRIKGLNVMQNLLTAHPDVQAVFAQNDEMALGALRALQTAGKSDVMVVGFDGTPDGEKAVNDGKLAATIAQLPDQIGAKGVETADKVLKGEKVQAKYPVDCKLVVKQ
modifications: acrylodan conjugate
In the case of B6, in experiment [3], the ΔIstd is reported as 0.20 and the ΔRmax was found to be 0.70.

B7: ribose BP T135C Fluorescein (conjugate, UniProt P02925 26-296, looked up, variant T135C)
Ribose import binding protein …: KDTIALVVSTLNNPFFVSLKDGAQKEADKLGYNLVVLDSQNNPAKELANVQDLTVRGTKILLINPTDSDAVGNAVKMANQANIPVITLDRQATKGEVVSHIASDNVLGGKIAGDYIAKKAGEGAKVIELQGIAGCSAARERGEGFQQAVAAHKFNVLASQPADFDRIKGLNVMQNLLTAHPDVQAVFAQNDEMALGALRALQTAGKSDVMVVGFDGTPDGEKAVNDGKLAATIAQLPDQIGAKGVETADKVLKGEKVQAKYPVDLKLVVKQ
modifications: fluorescein conjugate
In the case of B7, in experiment [3], the ΔIstd was determined as 0.18 and the ΔRmax came to 1.79.

B8: ribose BP T135C Acrylodan (conjugate, UniProt P02925 26-296, looked up, variant T135C)
Ribose import binding protein …: KDTIALVVSTLNNPFFVSLKDGAQKEADKLGYNLVVLDSQNNPAKELANVQDLTVRGTKILLINPTDSDAVGNAVKMANQANIPVITLDRQATKGEVVSHIASDNVLGGKIAGDYIAKKAGEGAKVIELQGIAGCSAARERGEGFQQAVAAHKFNVLASQPADFDRIKGLNVMQNLLTAHPDVQAVFAQNDEMALGALRALQTAGKSDVMVVGFDGTPDGEKAVNDGKLAATIAQLPDQIGAKGVETADKVLKGEKVQAKYPVDLKLVVKQ
modifications: acrylodan conjugate
In the case of B8, in experiment [3], the ΔIstd is reported as 0.31 and the ΔRmax was determined as 6.26.

B9: ribose BP L265C NBD (conjugate, UniProt P02925 26-296, looked up, variant L265C)
Ribose import binding protein …: KDTIALVVSTLNNPFFVSLKDGAQKEADKLGYNLVVLDSQNNPAKELANVQDLTVRGTKILLINPTDSDAVGNAVKMANQANIPVITLDRQATKGEVVSHIASDNVLGGKIAGDYIAKKAGEGAKVIELQGIAGTSAARERGEGFQQAVAAHKFNVLASQPADFDRIKGLNVMQNLLTAHPDVQAVFAQNDEMALGALRALQTAGKSDVMVVGFDGTPDGEKAVNDGKLAATIAQLPDQIGAKGVETADKVLKGEKVQAKYPVDCKLVVKQ
modifications: NBD dye conjugate
Regarding B9, in experiment [3], the ΔIstd worked out at 0.01 and the ΔRmax came to 0.13.

B10: ribose BP T135C JPW4042 (conjugate, UniProt P02925 26-296, looked up, variant T135C)
Ribose import binding protein …: KDTIALVVSTLNNPFFVSLKDGAQKEADKLGYNLVVLDSQNNPAKELANVQDLTVRGTKILLINPTDSDAVGNAVKMANQANIPVITLDRQATKGEVVSHIASDNVLGGKIAGDYIAKKAGEGAKVIELQGIAGCSAARERGEGFQQAVAAHKFNVLASQPADFDRIKGLNVMQNLLTAHPDVQAVFAQNDEMALGALRALQTAGKSDVMVVGFDGTPDGEKAVNDGKLAATIAQLPDQIGAKGVETADKVLKGEKVQAKYPVDLKLVVKQ
modifications: JPW4042 dye conjugate
As to B10, in experiment [3], the ΔIstd was found to be 0.02 and the ΔRmax is 0.35.
